Results: patent publication US20260069689A1 (Regeneron, published 2026)
Substitutions are numbered along the chain they refer to.

B1: mAb14284 (antibody, V domains shown)
VH: QITLKESGPTLVKPTQTLTLTCTFSGFSFSTSGVGVGWIRQPPGKTLEWLALIYWDDDKRYSPSLKSRLTITKDTSKNQVVLTMTNMDPVDTATYFCAHHGIPTIFGYWGQGALVTVSS
VL: QSALTQPASVSGSPGQSITISCTGTSSDLGVFNYVSWYQQHPGKAPKLMIYEVTNRPSGVSNRFSGSKSGNTASLTISGLQAEDEADYYCSSYTTSSTVFGGGTKLTVLG
B2: mAb15150 (antibody, V domains shown)
VH: EVQLVETGGGLIQPGGSLRLSCAAPGFIVSSNYMSWVRQAPGKGLEWVSLLYPGGSTYYADSVKGRFTISRDNSKNTLYLQMNSLRADDTAVYYCARVLPIVEDHFDYWGQGTLVTVSS
VL: DIQLTQSPSFLSASVGDRVTITCRASQGMSSYLAWYQKKPGKAPKLLIYGATILQSGVPSRFSGSGSGTEFTLTISSLQPEDFATYYCQQLNSDPLYMYTFGQGTKLEIKR
B3: mAb15170 (antibody, V domains shown)
VH: EVQLVESGGGLVQPGGSLRLSCAATGITVSSNYMSWVRQAPGKGLEWVSLIYSGGSTFYADSVKGRFTISRHNSKNTLYLQMSSLRAEDTAVYYCARDLVDFGMDVWGQGTTVTVSS
VL: DIQLTQSPSSLSASVGDRVTITCRASQGISNYLAWYQQKPGKAPKLLIYAASTLQSGVPSRFSGSGSGTDFTLTISSLQPEDFGTYYCQQLNSDSPTFGQGTKVEIKR
B4: mAb15151 (antibody, V domains shown)
VH: QVQLVESGGGVVQPGRSLRLSCAASGFVFNSYGMHWVRQAPGKGLEWVAVLWYEGSKNYYADSVKGRFTISRDNSKNTLYLQMNSLRAEDTAVYYCARHGSGSFFGYYLDYWGQGTLVTVSS
VL: DIQMTQSPSSLSASVGDRVTITCRASHNINDFLNWYQQKPGKAPRLLIYAASSLQSGVPSRFSGSGSGTDFTLTISSLQPEDFATYYCQESYTTPPTFGQGTKLEIKR
B5: mAb15166 (antibody, V domains shown)
VH: EVQLVESGGGLVQPGGSLRLSCAASGFTVTSNYMSWVRQAPGKGLEWVSAIYSGESTYYADSVKGRFTISRDSSKNTLYLQMNSLRVEDTAVYYCASIHDYSNYVGGFDPWGQGTLVTVSS
VL: QSALTQPASVSGSPGQSITISCTGPSSDFGSYNLVSWYQQHPGKAPKLMIYEGTKRPSGVSNRFSGSKSGNTASLTISGLQAEDEADYYCSSYAGSSTWVFGGGTKLTVLG
B6: mAb14312 (antibody, V domains shown)
VH: EVQLVESGGGLVQPGGSLRLSCAASGFTVSRSYMTWVRQAPGKGLEWVSVIFTGGRTDHADSVKGRFTISRHNSKNTLYLQMNSLRTEDTAVYYCARVAIVGATGAFDIWGQGTMVTVSS
VL: QSVLTQPPSVSGAPGQRVTISCTGSSSNIGAGDDVHWYQQLPGTAPKLLIYGNSNRPSGVPDRFSGSKSGTSASLAITGLQAEDEADYYCQSYDSSLSGSVVFGGGTKLTVLG
B7: mAb14284 (antibody, V domains shown)
VH: B1 VH
VL: B1 VL
B8: mAb14235 (antibody, V domains shown)
VH: QITLKESGPTLVKPTQTLTLTCTFSGFSLNTGGVGVGWIRQPPGNALEWLALIYWDDDKRYNPSLKTRLTISKDTSKNQVVLTMTNMDPVDTATYFCAHLTIAVIVDFWGQGTLVTVSS
VL: B1 VL with G24A, L29V, V31T, F32Y, Y38F, Q40H, S96T, T98I
B9: mAb15150 (antibody, V domains shown)
VH: B2 VH
VL: B2 VL
B10: mAb13459 (antibody, V domains shown)
VH: EVQLVESGGGLVQPGRSLRLSCAASGFTFDDYAMHWVRQAPGKGLEWVSGISWNSGSIGYADSVKGRFTISRDNAKNSLYLQMNSLRAEDTALYYCAKDIGITTPYWGQGTLVTVSS
VL: AIQMTQSPSSLSASVGDRVTITCRASQDIRNDLGWYQQKPGKAPKLLIYSASSLQTGVPSRFSGSGSGTDFTLTISSLHPEDFATYYCLQDYNYVWTFGQGTKVEIKR
B11: mAb14283 (antibody, V domains shown)
VH: QVQLQESGPGLVKPSGTLSLTCDVSGGSISSNNWWSWVRQRPGKGLQWIGEIYHNENTNYNPSLKSRVIMSIDKSKNQFSLKLTSVTAADTAVYYCARGDVLDWFDPWGQGTLVTVSS
VL: QSALTQPASVSGSPGQSTTISCTGTSSDVGGYNYVSWYQQYPGKAPKLMIYDVTNRPSGVSHRFSGSKSGNTASLTISGLQAEDEADYYCSSYTSSSTVIFGGGTKLTVLG
B12: mAb14289 (antibody, V domains shown)
VH: QVQLVQSGPEVKKPGASVKVSCKASGYTFTSYAISWVRQAPGQGLEWMGWISAYNGNTNYAQKLQGRVTMTTDTFTSTAYMELRSLRSDDTAVYYCAVPADHITFDYWGQGTLVTVSS
VL: EIVLTQSPGTLSLSPGERATLSCRASQSVSSYLAWYQQKPGQAPRLLIHGASSRATGIPDRFSGSGSGTDFTLTISRLEPEDFAVYYCQQYGSSFLTFGGGTKVEIKR
B13: mAb14294 (antibody, V domains shown)
VH: EVQLVESGGGLVQPGGSLRLSCAASGFTFSNHWMDWVRQAPGKGLVWVSRINSDGSSTDYADSVRGRFTMSRDNAKNTLYLQMSSLRAEDTAVYYCAREGMIFGAVIIPGWYFDLWGRGALVTVSS
VL: EIVLTQSPGTLSLSPGERATLSCRASQSVSSSQLAWYQQKPGQAPRLLIYGASSRATGIPDRFSGSGSGTDFTLTISRLEPEDFAVYYCQQYDSFGQGTKLEIKR
B14: mAb14312 (antibody, V domains shown)
VH: B6 VH
VL: B6 VL
B15: mAb14258 (antibody, V domains shown)
VH: QLQLQESGPGLVKPSETLSLICTGSGDSISSSHYYWGWIRQPPGKGLEWIGSTYFSGSTYYNPSLKSRVSISVDTSKNQVSLKLISVTAADTAVYYCAREMGATLGDYWGPGTLVTVSS
VL: QSVLTQPPSASGTPGQRVTISCSGSSSNIGNNYVYWYQQFPGTTPRLLIYRNNERPSGVPDRFSGSKSGTSASLVISGLRSEDEADYYCAAWDDSLSAHYVFGTGTKVTVLG

What follows are binders tested against T1, SARS-CoV2 Spike ecto foldon Trimer expressed with a C-terminal myc-myc-hexahistidine (SARS-CoV-2, UniProt P0DTC2 14-1213) (assay: SPR Biacore, mAb captured by anti-hFc, 37C).
T1 construct: extracellular domain
Work on B1 yielded a Kd of 0.0251 nM, a koff of 2.05e-05 s⁻¹ and a kon of 814000 M⁻¹ s⁻¹. It also gave a t½ of 9.41 h.
Work on B2 yielded a Kd of 0.0202 nM, a koff of 3.42e-05 s⁻¹ and a kon of 1.68e+06 M⁻¹ s⁻¹. For the same binder, the t½ was 5.63 h.
B3 showed a Kd of 0.0118 nM, a koff of 1e-05 s⁻¹ and a kon of 846000 M⁻¹ s⁻¹. For the same binder, the t½ was 19.2 h.
Work on B4 yielded a Kd of 0.129 nM, a koff of 0.000248 s⁻¹ and a kon of 1.92e+06 M⁻¹ s⁻¹. The t½ was 0.777 h.
With B5 the Kd was 0.054 nM, the koff was 8.32e-05 s⁻¹ and the kon was 1.54e+06 M⁻¹ s⁻¹. It also gave a t½ of 2.31 h.
In the case of B6, the Kd is reported as 0.0563 nM, the koff is reported as 5.44e-05 s⁻¹ and the kon is reported as 966000 M⁻¹ s⁻¹. It also gave a t½ of 3.54 h.

The binders below were run against T1, SARS-CoV2 Spike ecto foldon Trimer … (assay: SPR Biacore, mAb captured by anti-hFc, 25C).
For B1, the Kd was 0.0161 nM, the koff was 1.31e-05 s⁻¹ and the kon was 812000 M⁻¹ s⁻¹. The t½ was 14.7 h.
In the case of B2, the Kd is reported as ≤ 0.0315 nM, the koff is reported as ≤ 1e-05 s⁻¹ and the kon is reported as 317000 M⁻¹ s⁻¹. The t½ was 19.2 h.
B3 was tested, and the Kd was 0.11 nM, the koff was 1.29e-05 s⁻¹ and the kon was 120000 M⁻¹ s⁻¹. The t½ was 14.9 h.
With B4 the Kd was 0.187 nM, the koff was 6.26e-05 s⁻¹ and the kon was 335000 M⁻¹ s⁻¹. It also gave a t½ of 3.08 h.
B5 showed a Kd of 0.63 nM, a koff of 0.000174 s⁻¹ and a kon of 276000 M⁻¹ s⁻¹. It also gave a t½ of 1.1 h.
B6 showed a Kd of 0.0272 nM, a koff of 5.24e-05 s⁻¹ and a kon of 1.93e+06 M⁻¹ s⁻¹. For the same binder, the t½ was 3.67 h.

These binders were tested against T2, SARS-COV-2 RBD extracellular domain expressed with a C-terminal mouse IgG2a Fc (SARS-CoV-2) (assay: Biacore SPR, mAb captured on anti-hFc, 37 C).
B7 showed a Kd of 0.027 nM, a koff of 2.24e-05 s⁻¹ and a kon of 830000 M⁻¹ s⁻¹. The t½ was 8.6 h.
Work on B8 yielded a Kd of 0.0612 nM, a koff of 6.68e-05 s⁻¹ and a kon of 1.09e+06 M⁻¹ s⁻¹. For the same binder, the t½ was 2.88 h.
B9 showed a Kd of 0.0296 nM, a koff of 2.8e-05 s⁻¹ and a kon of 946000 M⁻¹ s⁻¹. For the same binder, the t½ was 6.88 h.
B10 showed a Kd of 0.0939 nM, a koff of 9.24e-05 s⁻¹ and a kon of 985000 M⁻¹ s⁻¹. For the same binder, the t½ was 2.08 h.
With B11 the Kd was 0.0631 nM, the koff was 9.59e-05 s⁻¹ and the kon was 1.52e+06 M⁻¹ s⁻¹. For the same binder, the t½ was 2.01 h.
B12 gave a Kd of 0.0907 nM, a koff of 0.000128 s⁻¹ and a kon of 1.41e+06 M⁻¹ s⁻¹. The t½ was 1.5 h.
With B13 the Kd was 0.0386 nM, the koff was 3.5e-05 s⁻¹ and the kon was 906000 M⁻¹ s⁻¹. For the same binder, the t½ was 5.5 h.
Work on B14 yielded a Kd of 0.0347 nM, a koff of 5.8e-05 s⁻¹ and a kon of 1.67e+06 M⁻¹ s⁻¹. It also gave a t½ of 3.32 h.

These binders were tested against T2, SARS-COV-2 RBD extracellular domain … (assay: Biacore SPR, mAb captured on anti-hFc, 25 C).
For B7, the Kd was 0.0255 nM, the koff was 2.12e-05 s⁻¹ and the kon was 831000 M⁻¹ s⁻¹. The t½ was 9.08 h.
B8 gave a Kd of 0.0627 nM, a koff of 6.89e-05 s⁻¹ and a kon of 1.1e+06 M⁻¹ s⁻¹. The t½ was 2.79 h.
In the case of B15, the Kd is reported as 3.04 nM, the koff is reported as 0.000109 s⁻¹ and the kon is reported as 35600 M⁻¹ s⁻¹. For the same binder, the t½ was 1.77 h.
B11 showed a Kd of 0.0524 nM, a koff of 8.14e-05 s⁻¹ and a kon of 1.55e+06 M⁻¹ s⁻¹. It also gave a t½ of 2.37 h.
B12 was tested, and the Kd was 0.0628 nM, the koff was 8.95e-05 s⁻¹ and the kon was 1.43e+06 M⁻¹ s⁻¹. It also gave a t½ of 2.15 h.
B13 gave a Kd of 0.0294 nM, a koff of 2.68e-05 s⁻¹ and a kon of 911000 M⁻¹ s⁻¹. For the same binder, the t½ was 7.17 h.
With B14 the Kd was 0.0334 nM, the koff was 5.6e-05 s⁻¹ and the kon was 1.68e+06 M⁻¹ s⁻¹. For the same binder, the t½ was 3.44 h.
